The source of these data is patent publication US20120114659A1 (published 2012).

The target of the test is T1, human NPRA on HEK cells loaded with BNP (human, UniProt P16860 103-134).
T1 sequence: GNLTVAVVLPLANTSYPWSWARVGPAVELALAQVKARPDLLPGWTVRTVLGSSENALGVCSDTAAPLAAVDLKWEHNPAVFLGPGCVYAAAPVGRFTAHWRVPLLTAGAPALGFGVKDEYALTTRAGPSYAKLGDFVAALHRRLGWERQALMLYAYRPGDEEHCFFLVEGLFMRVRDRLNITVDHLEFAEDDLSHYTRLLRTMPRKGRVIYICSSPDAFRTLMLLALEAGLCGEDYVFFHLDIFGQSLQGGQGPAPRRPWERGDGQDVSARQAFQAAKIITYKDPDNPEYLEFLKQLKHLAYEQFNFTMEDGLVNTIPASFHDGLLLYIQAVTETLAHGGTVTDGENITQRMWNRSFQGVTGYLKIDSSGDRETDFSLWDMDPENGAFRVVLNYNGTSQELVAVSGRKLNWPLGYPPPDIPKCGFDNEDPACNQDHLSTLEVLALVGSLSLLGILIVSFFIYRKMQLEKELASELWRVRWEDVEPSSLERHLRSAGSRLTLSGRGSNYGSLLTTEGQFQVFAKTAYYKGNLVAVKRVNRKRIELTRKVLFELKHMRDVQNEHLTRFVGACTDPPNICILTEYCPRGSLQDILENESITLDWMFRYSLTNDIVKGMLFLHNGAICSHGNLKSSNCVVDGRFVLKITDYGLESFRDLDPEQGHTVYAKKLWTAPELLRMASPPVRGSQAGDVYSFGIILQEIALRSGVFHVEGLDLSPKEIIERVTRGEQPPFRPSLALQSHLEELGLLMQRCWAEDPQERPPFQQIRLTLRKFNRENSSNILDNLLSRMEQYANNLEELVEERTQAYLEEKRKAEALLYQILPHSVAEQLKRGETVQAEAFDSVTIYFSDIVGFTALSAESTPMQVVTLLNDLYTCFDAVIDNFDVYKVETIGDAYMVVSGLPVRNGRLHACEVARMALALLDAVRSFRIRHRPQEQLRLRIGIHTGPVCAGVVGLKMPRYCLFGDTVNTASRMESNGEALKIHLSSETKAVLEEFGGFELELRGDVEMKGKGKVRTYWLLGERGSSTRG
T1 sequence (peptide): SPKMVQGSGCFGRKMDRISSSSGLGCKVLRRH
The experiment in a line: cell-based or functional assay.

B1: 5064 Fab (Fab, V domains shown)
VH: QVQLQQSGPGLVKPSQTLSLTCAISGDSVSSRSASWSWIRQSPGRGLEWLGRIYYRSKWYNDYAVSVKSRITINPDTSKNQFSLQLNSVTPEDTAVYYCARMDVPSFRYFDVWGQGTLVTVSS
VL: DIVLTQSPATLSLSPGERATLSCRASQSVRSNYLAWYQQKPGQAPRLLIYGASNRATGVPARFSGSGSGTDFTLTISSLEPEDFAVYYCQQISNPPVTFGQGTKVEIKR
With B1, the “fold decrease of the EC50 of BNP (cGMP, HEK NPRA cells, 400 nM Fab)” value was 2 fold.
